Results as given in patent publication US20140120109A1 (Regeneron, published 2014).

Target: T1, mouse DR3, full-length, expressed on HEK293 NFkB-luciferase reporter cells (mouse)
T1 chain: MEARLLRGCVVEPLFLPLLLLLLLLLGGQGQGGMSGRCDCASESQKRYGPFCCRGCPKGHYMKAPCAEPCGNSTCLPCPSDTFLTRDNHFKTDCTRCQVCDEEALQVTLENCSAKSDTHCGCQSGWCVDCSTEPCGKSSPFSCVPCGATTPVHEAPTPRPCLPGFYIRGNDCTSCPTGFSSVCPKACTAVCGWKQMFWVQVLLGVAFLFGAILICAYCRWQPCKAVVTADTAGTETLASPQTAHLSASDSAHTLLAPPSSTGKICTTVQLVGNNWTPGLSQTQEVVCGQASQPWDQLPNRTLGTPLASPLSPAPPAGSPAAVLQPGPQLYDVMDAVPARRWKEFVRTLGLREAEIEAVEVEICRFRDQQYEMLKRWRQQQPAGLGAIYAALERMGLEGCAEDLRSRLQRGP
Test: cell-based or functional assay

B1: full length rat TL1A expressed on HEK293 cells (ligand)
chain: MAEELGLGFGEAVPVEMLPEGCRHRREARTGLAARSKACLALTCCLLSFPILAGLSTLLMTGQLRIPGKDCMFPTVTEERSAPSAQPVYTPSRDKPKAHLTIMRQTPVPHLKNELAALHWENNLGMAFTKNRMNYTNKFLVIPESGDYFIYSQITFRGTTSECGDISRVRRPKKPDSITVVITKVADSYPEPAHLLTGTKSVCEISSNWFQPIYLGAMFSLEEGDRLMVNVSDISLVDYTKEDKTFFGAFLI
  EC50 (cells), NFkB-luciferase reporter: 9770 cells
